The Kd is the constant that tells how readily two partners part at equilibrium.

Reduction of Src autophosphorylation and Kd data for 1 substance are collected here from publication PMC9455167.

Test [1] deals with Recombinant human Src kinase (Abcam 79635) (human) (UniProt P12931).
The target is the same in test [2]. The test is described as follows: MST; RED-tris-NTA-labelled His-tagged Src kinase constant at 50 nM; unlabelled Na,K-ATPase 0.2 nM to 16 µM; 50 mM Tris/HCl pH 7.4, 150 mM NaCl, 10 mM MgCl2; Monolith NT.115, LED 100%, MST power 40%.

For “Na,K-ATPase purified from duck salt glands (complex)”, the reduction of Src autophosphorylation at Tyr416 in vitro (purified Na,K-ATPase, Src kinase, ATP; Western blot p-Src/Src) in test [1] stood at 70%. Moreover, the Kd in test [2] is 210 nM.
